Results on one substance are retold here after US20110318357A1.

This test concerns the target Shiga toxin type 2 (Stx2) (Escherichia coli) (UniProt P09385). As to the kind of experiment: cell-based or functional assay.

monoclonal antibody 11E10: the percent neutralization of cytotoxicity for Vero cells is 65%.
